Experimental data published in PMC12293987, “Dissecting the tRNA Fragment tRF3E–Nucleolin Interaction: Implications in Breast Cancer”.

How the values were obtained:
Nucleolin (NCL) [1] = target: T1, Nucleolin (NCL) (UniProt P19338 1-710); experiment: EMSA; printed as KD >= 1500 nM; still interacts with very low affinity; 20 mM Tris-HCl pH 7.5, 50 mM KCl, 10% glycerol, 0.3 mg/mL BSA, 0.02% Nonidet P-40, 15 uL, 2 pmol 32P-RNA, 20 °C 30 min (competition: further 30 min); native 7%; details: protein: recombinant; tags: His; label: 32P; predicted fold, CGA in bubble
Nucleolin (NCL) [2] = target: T1, Nucleolin (NCL); experiment: EMSA; complex I, NCL in excess; Kd taken as protein concentration retarding 50% of probe; 20 mM Tris-HCl pH 7.5, 50 mM KCl, 10% glycerol, 0.3 mg/mL BSA, 0.02% Nonidet P-40, 15 uL, 2 pmol 32P-RNA, 20 °C 30 min (competition: further 30 min); native 7%; details: protein: recombinant, tags: His
Nucleolin (NCL) [3] = target: T1, Nucleolin (NCL); experiment: EMSA; complete loss of retardation; 20 mM Tris-HCl pH 7.5, 50 mM KCl, 10% glycerol, 0.3 mg/mL BSA, 0.02% Nonidet P-40, 15 uL, 2 pmol 32P-RNA, 20 °C 30 min (competition: further 30 min); native 7%; details: protein: recombinant; tags: His; label: 32P; predicted fold, CGA at junction of double-stranded and unstructured region

T1 sequence (P19338 whole entry): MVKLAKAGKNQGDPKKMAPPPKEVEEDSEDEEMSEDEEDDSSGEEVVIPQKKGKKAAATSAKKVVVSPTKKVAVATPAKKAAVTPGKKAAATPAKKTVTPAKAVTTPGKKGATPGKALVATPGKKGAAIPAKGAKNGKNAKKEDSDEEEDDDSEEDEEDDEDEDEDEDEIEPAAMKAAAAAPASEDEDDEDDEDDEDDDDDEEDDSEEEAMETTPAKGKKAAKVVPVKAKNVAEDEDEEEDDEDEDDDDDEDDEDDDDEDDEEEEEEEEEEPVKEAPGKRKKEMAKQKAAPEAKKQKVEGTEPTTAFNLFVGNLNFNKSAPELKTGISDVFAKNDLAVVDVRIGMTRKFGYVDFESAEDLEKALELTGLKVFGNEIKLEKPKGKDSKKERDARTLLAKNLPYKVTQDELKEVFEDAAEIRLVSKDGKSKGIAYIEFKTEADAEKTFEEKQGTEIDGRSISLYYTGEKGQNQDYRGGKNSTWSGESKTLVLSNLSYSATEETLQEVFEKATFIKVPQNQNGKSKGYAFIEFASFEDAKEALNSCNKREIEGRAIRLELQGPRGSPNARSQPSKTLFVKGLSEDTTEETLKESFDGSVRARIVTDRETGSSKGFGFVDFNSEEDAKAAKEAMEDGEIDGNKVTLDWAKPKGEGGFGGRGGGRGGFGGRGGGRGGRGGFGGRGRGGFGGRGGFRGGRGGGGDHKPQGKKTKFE

For AGGCGGAAAUGGUUCGACUAAAUGUGUGGGAA (structured_RNA) [D2M], the Kd (Nucleolin (NCL) [1]) was greater than 1500 nM.

For AGGCGGCCCGGGUUCGACUCCCGGUGUGGGAA (structured_RNA) [wt tRF3E], the Kd (Nucleolin (NCL) [2]; hairpin (predicted stems, CGA 15-17 in loop)) was roughly 280 nM.

AGGCGGCCCGGGUUCGACUAAAUGUGUGGGAA (structured_RNA) [M19-24] gave a Kd (Nucleolin (NCL) [2]; hairpin (predicted, CGA 15-17 in loop)) of roughly 280 nM.

AGGCGGAAAUGGUUCGACUCCCGGUGUGGGAA (structured_RNA) [M6-11]: no binding (Nucleolin (NCL) [3]).
